Results: US20150203577A1 (Chugai, published 2015)

T1: mouse FcγRII (mouse, UniProt P08101 30-210)
T1 construct: also called mFcγRII; mFcgRII
T1 sequence: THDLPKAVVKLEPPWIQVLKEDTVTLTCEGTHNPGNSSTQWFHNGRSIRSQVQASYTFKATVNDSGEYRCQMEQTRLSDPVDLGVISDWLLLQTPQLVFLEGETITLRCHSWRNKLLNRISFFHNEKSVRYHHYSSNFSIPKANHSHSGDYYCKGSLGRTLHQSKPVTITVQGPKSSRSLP

T2: mouse FcγRIII (mouse, UniProt P08508 31-215)
T2 construct: also called mFcγRIII; mFcgRIII
T2 chain: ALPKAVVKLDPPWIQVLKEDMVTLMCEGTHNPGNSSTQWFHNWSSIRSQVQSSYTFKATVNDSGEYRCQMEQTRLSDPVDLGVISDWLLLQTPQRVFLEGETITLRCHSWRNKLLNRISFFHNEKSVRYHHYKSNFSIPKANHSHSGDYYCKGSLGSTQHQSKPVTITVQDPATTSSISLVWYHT


Assays:
mouse FcγRII = molecular target: T1, mouse FcγRII; experiment: SPR Biacore 4000, KD ratio
Procedure: (§1) Each altered antibody was analyzed for its interaction with each Fcγ receptor prepared above using Biacore T100 (GE Healthcare Japan Corp.), Biacore T200 (GE Healthcare Japan Corp.), Biacore A100, or Biacore 4000. The running buffer used was HBS-EP+ (GE Healthcare Japan Corp.). The assay temperature was set to 25° C. The sensor chips used were chips prepared by immobilizing Protein L (ACTIGEN or BioVision) onto Series S Sensor Chip CM5 (GE Healthcare Japan Corp.) or Series S Sensor Chip CM4 (GE Healthcare Japan Corp.) by the amine coupling method.
(§2) In order to calculate the KD value of each altered antibody for FcγR, kinetic analysis was conducted according to the following method: first, the antibody of interest was captured onto any of these chips and allowed to interact with mFcγR diluted with a running buffer. For the obtained sensorgram, the assay results were globally fit into the 1:1 Langmuir binding model using Biacore Evaluation Software to calculate an association rate constant ka (L/mol/s) and a dissociation rate constant kd (1/s). From these values, the dissociation constant KD (mol/L) was calculated.

mouse FcγRIII = molecular target: T2, mouse FcγRIII; experiment: SPR Biacore 4000, KD ratio
Procedure: as §1, §2

Row | Binder | relative mFcγRII-binding activity (mIgG1 = 1) (mouse FcγRII) [fold] | relative mFcγRIII-binding activity (mIgG1 = 1) (mouse FcγRIII) [fold]
1 | MB028 (antibody, mouse IgG1, kappa, copies: 2 + 2) heavy: QVQLQESGPGLVKPSETLSLTCAVSGHSISHDHAWSWVRQPPGEGLEWIGFISYSGITNYNPSLQGRVTISRDNSKNTLYLQMNSLRAEDTAVYYCARSLARTTAMDYWGEGTLVTVSSAKTTPPSVYPLAPGSAAQTNSMVTLGCLVKGYFPEPVTVTWNSGSLSSGVHTFPAVLQSDLYTLSSSVTVPSSTWPSETVTCNVAHPASSTKVDKKIVPRDCGCKPCICTMPEVSSVFIFPPKPKDVLTITLTPKVTCVVVDISKDDPEVQFSWFVDDVEVHTAQTQPREEQFNSTFRSVSELPIMHQDWLNGKEFKCRVNSAAFPAPIEKTISKTKGRPKAPQVYTIPPPKEQMAKDKVSLTCMITDFFPEDITVEWQWNGQPAENYKNTQPIMDTDGSYFVYSKLNVQKSNWEAGNTFTCSVLHEGLHNHHTEKSLSHSPGK light: not shown | 1.83 | 1.42
2 | MB030 (antibody, mouse IgG1, kappa, copies: 2 + 2) heavy: QVQLQESGPGLVKPSETLSLTCAVSGHSISHDHAWSWVRQPPGEGLEWIGFISYSGITNYNPSLQGRVTISRDNSKNTLYLQMNSLRAEDTAVYYCARSLARTTAMDYWGEGTLVTVSSAKTTPPSVYPLAPGSAAQTNSMVTLGCLVKGYFPEPVTVTWNSGSLSSGVHTFPAVLQSDLYTLSSSVTVPSSTWPSETVTCNVAHPASSTKVDKKIVPRDCGCKPCICTPPEVSSVFIFPPKPKDVLTITLTPKVTCVVVDISKDDPEVQFSWFVDDVEVHTAQTQPREEQFNSTFRSVSELPIMHQDWLNGKEFKCRVNSAAFPAPIEKTISKTKGRPKAPQVYTIPPPKEQMAKDKVSLTCMITDFFPEDITVEWQWNGQPAENYKNTQPIMDTDGSYFVYSKLNVQKSNWEAGNTFTCSVLHEGLHNHHTEKSLSHSPGK light: not shown | 5.26 | 2.27

The remaining lines, values ahead:

Row | relative mFcγRII-binding activity (mIgG1 = 1) (mouse FcγRII) [fold] | relative mFcγRIII-binding activity (mIgG1 = 1) (mouse FcγRIII) [fold] | Binder
3 | 1.19 | 1.06 | MB025 (antibody, mouse IgG1, kappa, copies: 2 + 2) heavy: QVQLQESGPGLVKPSETLSLTCAVSGHSISHDHAWSWVRQPPGEGLEWIGFISYSGITNYNPSLQGRVTISRDNSKNTLYLQMNSLRAEDTAVYYCARSLARTTAMDYWGEGTLVTVSSAKTTPPSVYPLAPGSAAQTNSMVTLGCLVKGYFPEPVTVTWNSGSLSSGVHTFPAVLQSDLYTLSSSVTVPSSTWPSETVTCNVAHPASSTKVDKKIVPRDCGCKPCICTIPEVSSVFIFPPKPKDVLTITLTPKVTCVVVDISKDDPEVQFSWFVDDVEVHTAQTQPREEQFNSTFRSVSELPIMHQDWLNGKEFKCRVNSAAFPAPIEKTISKTKGRPKAPQVYTIPPPKEQMAKDKVSLTCMITDFFPEDITVEWQWNGQPAENYKNTQPIMDTDGSYFVYSKLNVQKSNWEAGNTFTCSVLHEGLHNHHTEKSLSHSPGK light: not shown
4 | 1.88 | 1.55 | MB027 (antibody, mouse IgG1, kappa, copies: 2 + 2) heavy: QVQLQESGPGLVKPSETLSLTCAVSGHSISHDHAWSWVRQPPGEGLEWIGFISYSGITNYNPSLQGRVTISRDNSKNTLYLQMNSLRAEDTAVYYCARSLARTTAMDYWGEGTLVTVSSAKTTPPSVYPLAPGSAAQTNSMVTLGCLVKGYFPEPVTVTWNSGSLSSGVHTFPAVLQSDLYTLSSSVTVPSSTWPSETVTCNVAHPASSTKVDKKIVPRDCGCKPCICTLPEVSSVFIFPPKPKDVLTITLTPKVTCVVVDISKDDPEVQFSWFVDDVEVHTAQTQPREEQFNSTFRSVSELPIMHQDWLNGKEFKCRVNSAAFPAPIEKTISKTKGRPKAPQVYTIPPPKEQMAKDKVSLTCMITDFFPEDITVEWQWNGQPAENYKNTQPIMDTDGSYFVYSKLNVQKSNWEAGNTFTCSVLHEGLHNHHTEKSLSHSPGK light: not shown
